Laboratory results from PMC3902925, “The double PHD finger domain of MOZ/MYST3 induces α-helical structure of the histone H3 tail to facilitate acetylation and methylation sampling and modification” (Nucleic Acids Research, 2013).

Target: histone H3 of calf thymus core histones (bovine (calf thymus), UniProt P68432 1-136)
Assay: cell-based or functional assay

B1: GST-MOZ DPF-MYST (194–810) (enzyme)
chain: LPHEKDKPVAEPIPICSFCLGTKEQNREKKPEELISCADCGNSGHPSCLKFSPELTVRVKALRWQCIECKTCSSCRDQGKNADNMLFCDSCDRGFHMECCDPPLTRMPKGMWICQICRPRKKGRKLLQKKAAQIKRRYTNPIGRPKNRLKKQNTVSKGPFSKVRTGPGRGRKRKITLSSQSASSSSEEGYLERIDGLDFCRDSNVSLKFNKKTKGLIDGLTKFFTPSPDGRKARGEVVDYSEQYRIRKRGNRKSSTSDWPTDNQDGWDGKQENEERLFGSQEIMTEKDMELFRDIQEQALQKVGVTGPPDPQVRCPSVIEFGKYEIHTWYSSPYPQEYSRLPKLYLCEFCLKYMKSRTILQQHMKKCGWFHPPANEIYRKNNISVFEVDGNVSTIYCQNLCLLAKLFLDHKTLYYDVEPFLFYVLTQNDVKGCHLVGYFSKEKHCQQKYNVSCIMILPQYQRKGYGRFLIDFSYLLSKREGQAGSPEKPLSDLGRLSYMAYWKSVILECLYHQNDKQISIKKLSKLTGICPQDITSTLHHLRMLDFRSDQFVIIRREKLIQDHMAKLQLNLRPVDVDPECLRWTPVIVSNSVVSEEEEEEAEEGENEEPQCQERELE
initial rate of acetylation of core histones in time course HAT assays, DPF-MYST (194–810) against the MYST domain (510–810) alone: ≥ 8 fold
